From article PMC9061257

Molecular target: pseudouridine kinase from Escherichia coli strain B (EcPUKI), wildtype (E. coli strain B) (UniProt P30235)
Test: SEC

stoichiometry N: 2
Substance: pseudouridine kinase from Escherichia coli strain B (EcPUKI), wildtype (from UniProt P30235 1-313) (enzyme)
